Patent US20250163122A1, “COMPOSITIONS AND METHODS FOR TREATING AIRWAY MUCUS DYSFUNCTION” (BOARD OF REGENTS, THE UNIVERSITY OF TEXAS SYSTEM, priority 2022, published 2025)
Where a SMILES comes first, the peptide text is derived from it. Bridges are numbered along the chain shown (N, C = ends). [ ]: non-standard residue; d: D form. S5 = C=CCCC[C@](C)(N)C(=O)O

How the values were obtained:
airway SNAREs only = target: T1, airway SNAREs only (Homo sapiens, UniProt O00161+Q13277+Q9BV40, C112S/C79S/C80S/C83S/C85S/C87S); experiment: Single vesicle content mixing assay, airway SNAREs only (VAMP8 vesicles); type: biochemical; details: 10 μM peptide; raw count
T1 sequence (Q9BV40 1-100): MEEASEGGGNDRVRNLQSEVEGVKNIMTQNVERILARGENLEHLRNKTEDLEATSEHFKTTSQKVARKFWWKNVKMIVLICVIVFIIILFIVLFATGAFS
T1 sequence (Q13277 1-289): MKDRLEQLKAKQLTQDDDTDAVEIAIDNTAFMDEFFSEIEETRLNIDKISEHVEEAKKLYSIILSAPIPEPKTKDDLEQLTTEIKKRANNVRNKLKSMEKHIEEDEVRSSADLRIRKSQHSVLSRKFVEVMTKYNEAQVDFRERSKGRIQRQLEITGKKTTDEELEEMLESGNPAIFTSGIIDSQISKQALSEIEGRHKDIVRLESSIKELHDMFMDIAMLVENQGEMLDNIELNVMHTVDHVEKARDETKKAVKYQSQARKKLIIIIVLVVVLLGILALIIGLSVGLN
T1 sequence (O00161 1-211 C79S/C80S/C83S/C85S/C87S/C112S): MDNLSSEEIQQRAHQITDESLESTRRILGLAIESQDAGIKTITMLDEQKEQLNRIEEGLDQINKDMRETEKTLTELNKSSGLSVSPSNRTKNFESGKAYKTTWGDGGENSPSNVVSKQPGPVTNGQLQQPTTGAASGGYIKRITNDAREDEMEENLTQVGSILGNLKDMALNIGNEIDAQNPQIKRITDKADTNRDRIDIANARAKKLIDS
Text: For single vesicle content mixing assay, the lipid composition of the SV, SG, VAMP2, or VAMP8 vesicles was phosphatidylcholine (PC) (48%), phosphatidylethanolamine (PE) (20%), phosphatidylserine (PS) (12%), and cholesterol (20%); for both the neuronal and airway PM vesicles the lipid composition was Brain Total Lipid Extract supplemented 3.5 mol % PIP2, and 0.1 mol % biotinylated phosphatidylethanolamine (PE). The reconstitution method for neuronal PM and SV vesicles was described in detail previously (see Lai et al., 2017; Kyoung et al., 2011; and Lai et al., 2014). The same methods were used for airway PM, SG, VAMP2, and VAMP8 vesicles. […] A 3-5 fold excess of SNAP-25A or SNAP-23 (with respect to Stx1A or Stx3) and 3.5 mol % PIP2 were added to the protein-lipid mixture for neuronal or airway PM vesicles. […] For the preparation of SV, SG, VAMP2, or VAMP8 vesicles for single vesicle content mixing assay, 50 mM sulforhodamine B (Thermo Fisher Scientific) was added to the protein-lipid mixture. The vesicles subsequently formed during size exclusion chromatography using a Sepharose CL-4B column, packed under near constant pressure by gravity with a peristaltic pump (GE Healthcare) in a 5.5 ml column with a 5 ml bed volume that was equilibrated with buffer V (20 mM HEPES, pH 7.4, 90 mM NaCl) supplemented with 20 μM EGTA and 0.1% 2-mercaptoethanol. The eluent was subjected to dialysis into 21 of detergent-free buffer V supplemented with 20 μM EGTA, 0.1% 2-mercaptoethanol, 5 g of Bio-beads SM2 (Bio-Rad) and 0.8 g/L Chelex 100 resin (Bio-Rad). After 4 hours, the buffer was exchanged with 21 of fresh buffer V supplemented with 20 μM EGTA, 0.1% 2-mercaptoethanol and Bio-beads, and the dialysis continued for another 12 h (overnight). […] For ensemble lipid mixing assay, the reconstitution method is the same as that for the single vesicle content mixing assay, except that 50 mM sulforhodamine B was omitted for all the steps. Single vesicle content mixing experiments. All single vesicle fusion and single molecule experiments were performed on a prism-type total internal reflection fluorescence (TIRF) microscope using 532 nm (green) laser (CrystaLaser) excitation. Two observation channels were created by a 640 nm single-edge dichroic […]36, Shemrock): one channel was used for the fluorescence emission intensity of the content dyes and the other channel for that of the Cy5 dye that are part of the injected Ca^2+-solution. The two channels were recorded on two adjacent rectangular areas (45×90 m^2) of a charge-coupled device (CCD) camera (iXon+DV […], Andor Technology). The imaging data were recorded with the […] software developed by Taekjip Ha, Johns Hopkins University, Baltimore. Flow chambers were assembled by creating a “sandwich” consisting of a quartz slide and a glass coverslip that were both coated with polyethylene glycol (PEG) molecules consisting 0.1% (w/v) biotinylated-PEG except when stated otherwise, and using double-sided tape to create up to five flow-chambers. The single vesicle content mixing assay described in Lai et al. (2014) was used to monitor vesicle-vesicle association, Ca^2+-independent, and Ca^2+-triggered fusion. The surface of the quartz slides was passivated by coating the surface with polyethylene glycol (PEG) molecules which alleviated non-specific binding of vesicles. […]

Syt1 C2B = Syt1 C2B (Rattus norvegicus, UniProt P21707); experiment: Bulk fluorescence anisotropy binding, Syt1 C2B; details: Cy3 labeled peptide
Sequence of Syt1 C2B (P21707 271-421): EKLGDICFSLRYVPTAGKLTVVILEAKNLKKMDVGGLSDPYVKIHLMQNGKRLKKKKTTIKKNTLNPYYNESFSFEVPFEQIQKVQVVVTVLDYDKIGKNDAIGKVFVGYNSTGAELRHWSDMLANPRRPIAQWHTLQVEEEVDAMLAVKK
Method: (§1) Bulk fluorescence anisotropy measurements. In the bulk fluorescence anisotropy experiments, the P0 and SP9 peptides were labeled with the fluorescent dye Cy3 at the C-terminus. Anisotropy was measured with a Tecan Infinite […] fluorimeter using an excitation wavelength of 530±5 nm and emission wavelength of 580±5 nm at 27.2° C. The fluorescent dye labeled samples were diluted to 10 nM concentration in TBS (20 mM Tris, pH 7.5, 150 mM NaCl, 0.5 mM TCEP) for optimal read out.

Syt2 C2B = Syt2 C2B (Rattus norvegicus, UniProt P29101); experiment: Bulk fluorescence anisotropy binding, Syt2 C2B; details: Cy3 labeled peptide
Sequence of Syt2 C2B (P29101 272-422): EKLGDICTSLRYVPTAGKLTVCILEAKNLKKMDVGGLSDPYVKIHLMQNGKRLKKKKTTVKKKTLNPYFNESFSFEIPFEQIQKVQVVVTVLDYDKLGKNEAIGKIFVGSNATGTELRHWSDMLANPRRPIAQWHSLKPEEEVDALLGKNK
Method: as §1

In the case of “Ac-SKDA(S5)IRT(S5)VM(S5)DEQ(S5)EQL-amide (Ac-SKDA[S5]IRT[S5]VM[S5]DEQ[S5]EQL-NH2; staple 12-16, 5-9; SMILES CC[C@H](C)[C@@H]1NC(=O)[C@@](C)(NC(=O)[C@H](C)NC(=O)[C@H](CC(=O)O)NC(=O)[C@H](CCCCN)NC(=O)[C@H](CO)NC(C)=O)CCCC=CCCC[C@@](C)(C(=O)N[C@H](C(=O)N[C@@H](CCSC)C(=O)N[C@@]2(C)CCCC=CCCC[C@@](C)(C(=O)N[C@@H](CCC(=O)O)C(=O)N[C@@H](CCC(N)=O)C(=O)N[C@@H](CC(C)C)C(N)=O)NC(=O)[C@H](CCC(N)=O)NC(=O)[C@H](CCC(=O)O)NC(=O)[C@H](CC(=O)O)NC2=O)C(C)C)NC(=O)[C@H]([C@@H](C)O)NC(=O)[C@H](CCCNC(=N)N)NC1=O) [SP4]”, the “Ca2+ independent fusion events” value (airway SNAREs only) is reported as 16.
With “EESKDAGIRTLVMLDEQGEQLD [Peptide P0, non-stapled SNAP-25A fragment used as a control, reference compound]” the “binding to C2B domain of Syt1” value (Syt1 C2B) was “no binding”, the “Ca2+ independent fusion events” value (airway SNAREs only) was 38 and the “binding to C2B domain of Syt2” value (Syt2 C2B) was “no binding”.
With “Ac-SKD(S5)GIR(S5)LVMLDE(S5)GEQ(S5)DR-amide (Ac-SKD[S5]GIR[S5]LVMLDE[S5]GEQ[S5]DR-NH2; staple 15-19, 4-8; SMILES CC[C@H](C)[C@@H]1NC(=O)CNC(=O)[C@@](C)(NC(=O)[C@H](CC(=O)O)NC(=O)[C@H](CCCCN)NC(=O)[C@H](CO)NC(C)=O)CCCC=CCCC[C@@](C)(C(=O)N[C@@H](CC(C)C)C(=O)N[C@H](C(=O)N[C@@H](CCSC)C(=O)N[C@@H](CC(C)C)C(=O)N[C@@H](CC(=O)O)C(=O)N[C@@H](CCC(=O)O)C(=O)N[C@@]2(C)CCCC=CCCC[C@@](C)(C(=O)N[C@@H](CC(=O)O)C(=O)N[C@@H](CCCNC(=N)N)C(N)=O)NC(=O)[C@H](CCC(N)=O)NC(=O)[C@H](CCC(=O)O)NC(=O)CNC2=O)C(C)C)NC(=O)[C@H](CCCNC(=N)N)NC1=O) [SP1]” the “Ca2+ independent fusion events” value (airway SNAREs only) was 26.
With “Ac-SKD(S5)GIR(S5)LV(S5)LDE(S5)GEQL-amide (Ac-SKD[S5]GIR[S5]LV[S5]LDE[S5]GEQL-NH2; staple 11-15, 4-8; SMILES CC[C@H](C)[C@@H]1NC(=O)CNC(=O)[C@@](C)(NC(=O)[C@H](CC(=O)O)NC(=O)[C@H](CCCCN)NC(=O)[C@H](CO)NC(C)=O)CCCC=CCCC[C@@](C)(C(=O)N[C@@H](CC(C)C)C(=O)N[C@H](C(=O)N[C@@]2(C)CCCC=CCCC[C@@](C)(C(=O)NCC(=O)N[C@@H](CCC(=O)O)C(=O)N[C@@H](CCC(N)=O)C(=O)N[C@@H](CC(C)C)C(N)=O)NC(=O)[C@H](CCC(=O)O)NC(=O)[C@H](CC(=O)O)NC(=O)[C@H](CC(C)C)NC2=O)C(C)C)NC(=O)[C@H](CCCNC(=N)N)NC1=O) [SP10]” the “Ca2+ independent fusion events” value (airway SNAREs only) was 18.
`CC[C@H](C)[C@H](NC(=O)[C@]1(C)CCCC=CCCC[C@](C)(NC(=O)[C@H](CCC(=O)O)NC(=O)[C@H](CCC(=O)O)NC(C)=O)C(=O)N[C@@H](CCCCN)C(=O)N[C@@H](CC(=O)O)C(=O)N[C@@H](C)C(=O)N1)C(=O)N[C@@H](CCCNC(=N)N)C(=O)N[C@@]1(C)CCCC=CCCC[C@@](C)(C(=O)N[C@@H](CC(=O)O)C(=O)N[C@@H](CCC(=O)O)C(=O)N[C@@H](CCC(N)=O)C(=O)N[C@@H](CS)C(N)=O)NC(=O)[C@H](CCSC)NC(=O)[C@H](C(C)C)NC(=O)[C@H](CC(C)C)NC1=O` [SP9, Ac-EE(S5)KDA(S5)IR(S5)LVM(S5)DEQC-amide] (Ac-EE[S5]KDA[S5]IR[S5]LVM[S5]DEQC-NH2; staple 3-7, 10-14) was tested, and the “Ca2+ independent fusion events” value (airway SNAREs only) was 22.
